Measurements: the Immune Epitope Database (IEDB)

target: HLA-A*02:01; assay: IEDB peptide-MHC binding, purified MHC/competitive/radioactivity; ≥ and ≤ were set here for values at or beyond the usual limits of such assays; details: source organism: Human alphaherpesvirus 1

| Sequence | IC50 |
| --- | --- |
| AIVVVIILV | 6910 nM |
| ALAAIENYV | 2.7 nM |
| ALAFDSTRV | 649 nM |
| ALAPVFAFL | 2.2 nM |
| ALATALTEA | 10 nM |
| ALAVFQPAV | 1.6 nM |
| ALDHYDCLI | 180 nM |
| ALGERLDAV | 25 nM |
| ALGLSAFGV | 9.6 nM |
| ALGMRGLVL | 491 nM |
| ALHQCFTEL | 831 nM |
| ALHTALATV | 16 nM |
| ALLDRDCRV | 5.6 nM |
| ALLEACLRV | 6.6 nM |
| ALLGAWPAV | 2.5 nM |
| ALLPAPITL | 132 nM |
| ALLQQTWTL | 0.39 nM |
| ALMAGYFKI | 49 nM |
| ALMGAVTSL | 4.2 nM |
| ALMLRLLRI | 46 nM |
| ALMRGRPGL | 1680 nM |
| ALPDTVAPV | 9.1 nM |
| ALQTDNYTL | 29 nM |
| ALSALLTKL | 313 nM |
| ALSPALTAL | 194 nM |

| Sequence | IC50 |
| --- | --- |
| ALSPVLPPM | 30 nM |
| ALVACVAAL | 55 nM |
| ALVAWLTHA | 15 nM |
| ALVELNSGV | 9.3 nM |
| ALYACVLAA | 5.6 nM |
| ALYYSVENV | 38 nM |
| AMDLVLAAV | 4.4 nM |
| AMDSDLGSL | 978 nM |
| AMHARMAAV | 19 nM |
| AMNRRIMNV | 1190 nM |
| AVFGVVAIV | 250 nM |
| AVGELLAPV | 84 nM |
| AVHDPERPL | 3940 nM |
| AVLADFSLV | 134 nM |
| AVLAFVALI | 107 nM |
| AVVPIIPFL | 1030 nM |
| AVWISLAQV | 259 nM |
| CLAEYCTSL | 186 nM |
| CLLCNLLLV | 60 nM |
| CLSDLLGFL | 88 nM |
| CMFGVVSPA | 9.5 nM |
| DLAEWVPRV | 4.3 nM |
| DLWNVMYTL | 333 nM |
| DMTPAELEV | 669 nM |
| ELACLLMYL | 54 nM |

| Sequence | IC50 |
| --- | --- |
| ELFGEAFEV | 90 nM |
| EMADTFLDT | 1770 nM |
| EMIRYMALV | 179 nM |
| FAASANFFL | 142 nM |
| FADSDGHYV | 142 nM |
| FADTVVACV | 59 nM |
| FAFRYVNRL | 122 nM |
| FALDRPCLV | 76 nM |
| FIAPLGFSL | 6.5 nM |
| FILDALAQA | 2.6 nM |
| FILDNPGFV | 11 nM |
| FIPQYLSAV | 15 nM |
| FITTMAPRV | 32 nM |
| FIYLALLEA | 11 nM |
| FLAASALGV | 7.4 nM |
| FLADAVVRL | 52 nM |
| FLALVSNRV | 7.4 nM |
| FLAPELVRA | 12 nM |
| FLARFWTRA | 48 nM |
| FLASLVVLA | 1.7 nM |
| FLCAKCLGA | 137 nM |
| FLCTADAAV | 3 nM |
| FLEDLSYPA | 0.64 nM |
| FLGAGALAV | 80 nM |
| FLGDDPSPA | 13 nM |

| Sequence | IC50 |
| --- | --- |
| FLGGHVAVA | 65 nM |
| FLGSCICFI | 12 nM |
| FLHDVENFL | 12 nM |
| FLHLYLFLT | 564 nM |
| FLLAKLTDI | 10 nM |
| FLLKQFHAA | 53 nM |
| FLMAPDLYV | 6.4 nM |
| FLNQANCKI | 458 nM |
| FLQPTADLL | 26 nM |
| FLRSCHWVL | 582 nM |
| FLRYHCPGL | 188 nM |
| FLSAKTLTV | 11 nM |
| FLSDSEAEA | 2.6 nM |
| FLSRPINTI | 528 nM |
| FLSTLPSDV | 76 nM |
| FLTCTDRSV | 83 nM |
| FLTPLSVTL | 4.7 nM |
| FLTREILWA | 4.2 nM |
| FLTTPVPSL | 111 nM |
| FLVPGTHVA | 45 nM |
| FLWSFLVLK | 1420 nM |
| FLYLAFVAL | 1970 nM |
| FMAAKAAHL | 276 nM |
| FMHIWLQAA | 81 nM |
| FMPDFSRVI | 101 nM |

| Sequence | IC50 |
| --- | --- |
| FMQPDNANL | 47 nM |
| FMSVVNTNI | 60 nM |
| FMTALVLSL | 0.8 nM |
| FMVSSIDEL | 1.1 nM |
| FTATSIARV | 74 nM |
| FTINIAAYL | 123 nM |
| FTLPVLTFV | 1.1 nM |
| FTQKSLFPI | 84 nM |
| FVADVQHAA | 7750 nM |
| FVALIPPTL | 704 nM |
| FVAPYFESV | 8.7 nM |
| FVFVILARL | 720 nM |
| FVGVIILGV | 5.9 nM |
| FVPYVLALV | 0.9 nM |
| FVVWALLGL | 196 nM |
| FVVYNLTGV | 2.2 nM |
| FVWQERAAV | 261 nM |
| FVYTPSPYV | 129 nM |
| FWMSPVFNL | 96 nM |
| GIAWYVTSI | 143 nM |
| GILTVVWTA | 2.1 nM |
| GLARLDALV | 13 nM |
| GLAVAMEV | 25 nM |
| GLAVDLYAL | 12 nM |
| GLAVVLWSL | 17 nM |

| Sequence | IC50 |
| --- | --- |
| GLDEQQLDV | 1180 nM |
| GLFFSVYAL | 23 nM |
| GLFQEAYPL | 5.4 nM |
| GLFQPFMFV | 37 nM |
| GLFVSLPVV | 4.7 nM |
| GLGRHLWRL | 133 nM |
| GLISFYNFL | 1.5 nM |
| GLLFVLLVA | 1060 nM |
| GLLGSLVGA | 3.7 nM |
| GLLRVGADT | 23900 nM |
| GLNGDSFRV | 22 nM |
| GLVFRFSEV | 262 nM |
| GLVLVWYTV | 66 nM |
| GLVSFNFLV | 0.5 nM |
| GLWVCATSL | 36 nM |
| GLYLCVVYV | 47 nM |
| GMHPRGVHA | ≥ 70000 nM |
| GMLICLTVL | 548 nM |
| GMRGLVLAT | 3660 nM |
| GMVIACLLV | 252 nM |
| GPGDPDVYL | 30600 nM |
| GQAAALTDL | 2300 nM |
| GVVIIAALV | 1080 nM |
| HLCRYVALL | 200 nM |
| HLMRDPALL | 37 nM |

| Sequence | IC50 |
| --- | --- |
| HMFCDPMCA | 796 nM |
| HMGEVPPRL | 1740 nM |
| IAPNASLGV | 110 nM |
| IILTLIPRL | 127 nM |
| IIPFLLVLV | 55 nM |
| IIWGELFGV | 2.3 nM |
| ILDAARPAV | 99 nM |
| ILFLWSFLV | 0.36 nM |
| ILFSYDELV | 5.6 nM |
| ILIEGIFFA | 0.17 nM |
| ILLENLMRA | 19 nM |
| ILMHATYFL | 1.2 nM |
| ILMILIEGI | 12 nM |
| ILSPTAPSV | 6.1 nM |
| ILVVSLLLV | 205 nM |
| ILYSVLQHL | 55 nM |
| ITMGMPYAV | 23 nM |
| IVYLCPVLV | 137 nM |
| KIFRCLTVL | 159 nM |
| KLAVYYYII | 31 nM |
| KLCSPVFAI | 9.3 nM |
| KLLALLGQV | 33 nM |
| KLLWAVEPL | 12 nM |
| KLMARRAQV | 795 nM |
| KMAQCTLAV | 14 nM |

| Sequence | IC50 |
| --- | --- |
| KMDIDVEYL | 148 nM |
| KMNQTLLFL | 907 nM |
| KMSYPQFLA | 1400 nM |
| KQLNYCHLI | 398 nM |
| KSMDDDTYV | 689 nM |
| KTWFLVPLI | 1.7 nM |
| LITDDGEVV | 13700 nM |
| LITNYLPSV | 5.2 nM |
| LLAENLPGL | 1.1 nM |
| LLAFDTQPV | 9.3 nM |
| LLAKMLFYL | 5.6 nM |
| LLANNPPPV | 24 nM |
| LLANTVRYL | 75 nM |
| LLAPGPLFV | 5.6 nM |
| LLAQFQHTV | 1.2 nM |
| LLAVAVYAV | 5.8 nM |
| LLDDLGFSA | 46 nM |
| LLDFELACL | 63 nM |
| LLDTGPFSA | 93 nM |
| LLFNSLYPA | 1.5 nM |
| LLFVLLVAL | 1130 nM |
| LLGGVMAAV | 25 nM |
| LLGQVQTYV | 18 nM |
| LLIDTGVYA | 94 nM |
| LLLAGTPAV | 17 nM |

| Sequence | IC50 |
| --- | --- |
| LLLALRHPA | 600 nM |
| LLLAVAVYA | 93 nM |
| LLLHSLTPL | 6.9 nM |
| LLLISMYAL | 4.7 nM |
| LLLMGCDIV | 94 nM |
| LLLNTTLTV | 2.9 nM |
| LLLRQWLHV | 207 nM |
| LLLVRAYWL | 63 nM |
| LLMACAFWC | 974 nM |
| LLMGCDIVL | 2.3 nM |
| LLMNELLRV | 8.4 nM |
| LLMVAVIMAI | 9 nM |
| LLNNYDVLV | 10 nM |
| LLPAVQCAV | 63 nM |
| LLPEIAPNA | 30 nM |
| LLQRANELV | 635 nM |
| LLSALGLSV | 8.9 nM |
| LLSGLPTYA | 177 nM |
| LLSNTLAEL | 5.1 nM |
| LLVEVLREI | 1.6 nM |
| LLYDLSTTA | 43 nM |
| LLYLITNYL | 11 nM |
| LLYNGAYHL | 7.6 nM |
| LMDGHTGMV | 184 nM |
| LMFDPRALA | 762 nM |

| Sequence | IC50 |
| --- | --- |
| LMHATYFLA | 96 nM |
| LMPSPPMPV | 124 nM |
| LVLNMVYSI | 94 nM |
| LVVTAIVYV | 187 nM |
| LVWYTVFGA | 346 nM |
| MILALTVAI | 45 nM |
| MLCGFSPAL | 8.5 nM |
| MLDTWNEDL | 102 nM |
| MLIDLGLDL | 14 nM |
| MLIKGVDLV | 16 nM |
| MLLAFMTLV | 5.7 nM |
| MLLATREYV | 46 nM |
| MLRDRWSLV | 311 nM |
| MLWTTDKHV | 1290 nM |
| MLYVIFPGT | 317 nM |
| MMLRDRWSL | 14 nM |
| MQFVDRFVV | 209 nM |
| MVIACLLVA | 166 nM |
| NIGAYVVLV | 282 nM |
| NTLMFMVYV | 69 nM |
| QLFEAHPNV | 256 nM |
| QLFPGLAAL | 16 nM |
| QLLADFPEA | 133 nM |
| QLLDPPAAV | 186 nM |
| QLLSAVDYI | 127 nM |

| Sequence | IC50 |
| --- | --- |
| QLQAAIFHA | 697 nM |
| RIQQYMFFM | 81 nM |
| RLAEAVVSA | 75 nM |
| RLARCLTPA | 23 nM |
| RLASLLTYA | 7.9 nM |
| RLATHLRAV | 159 nM |
| RLCLDVPPV | 8.5 nM |
| RLDAEYWSV | 44 nM |
| RLDALVVAA | 44 nM |
| RLDSLDLTL | 101 nM |
| RLFDFFSRV | 0.2 nM |
| RLIDRMLTA | 8.6 nM |
| RLLEVMDSL | 144 nM |
| RLLGFADTV | 27 nM |
| RLLQSFLKV | 82 nM |
| RLMNDWAEV | 24 nM |
| RLNNRPIAV | 20 nM |
| RLPHICYPV | 17 nM |
